# In paper PMC12635197, “Discovery of first-in-class inhibitors of the TRF1:TIN2 protein:protein interaction by fragment screening” (Scientific Reports, 2025):
# T1: (StrepII)2-TEV-tagged TIN2, subunit of recombinant shelterin (UniProt Q9BSI4-1 1-451)
# T1 construct: TIN2, gene NM_001099274.1, codon-optimised; a TEV site lies between tag and protein; The separately made control protein is called TIN2L; The discussion says that the complex carries a short peptidic tag on TIN2; source: Sf9, co-expressed with the other shelterin subunits (MultiBac baculovirus), purified (StrepTrap, serial SEC)
# T1 sequence (looked up): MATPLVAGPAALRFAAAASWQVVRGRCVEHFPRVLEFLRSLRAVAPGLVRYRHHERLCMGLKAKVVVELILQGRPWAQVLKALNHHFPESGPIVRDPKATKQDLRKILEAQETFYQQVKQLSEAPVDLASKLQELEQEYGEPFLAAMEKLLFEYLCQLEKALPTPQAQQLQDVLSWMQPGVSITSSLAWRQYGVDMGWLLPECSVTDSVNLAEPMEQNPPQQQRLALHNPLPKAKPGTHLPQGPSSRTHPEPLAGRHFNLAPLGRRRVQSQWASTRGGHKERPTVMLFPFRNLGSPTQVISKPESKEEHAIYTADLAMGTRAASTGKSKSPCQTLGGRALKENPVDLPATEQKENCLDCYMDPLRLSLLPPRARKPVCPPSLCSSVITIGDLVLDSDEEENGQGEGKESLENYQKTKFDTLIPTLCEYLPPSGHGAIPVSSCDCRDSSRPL
# Biological target: T1, (StrepII)2-TEV-tagged TIN2, subunit of …
# Test: mass photometry; SEC-purified shelterin without compound; complex of around 700 kDa; 50 mM HEPES-NaOH pH 8.0, 300 mM NaCl
# Conditions: both partners purified
row,stoichiometry N,Binder
1,1 TPP1 per TIN2,"TPP1, subunit of recombinant shelterin (natural protein, UniProt Q96AP0 1-458, looked up, TPP1 (shelterin subunit), gene BC016904.1, codon-optimised) MAGSGRLVLRPWIRELILGSETPSSPRAGQLLEVLQDAEAAVAGPSHAPDTSDVGATLLVSDGTHSVRCLVTREALDTSDWEEKEFGFRGTEGRLLLLQDCGVHVQVAEGGAPAEFYLQVDRFSLLPTEQPRLRVPGCNQDLDVQKKLYDCLEEHLSESTSSNAGLSLSQLLDEMREDQEHQGALVCLAESCLTLEGPCTAPPVTHWAASRCKATGEAVYTVPSSMLCISENDQLILSSLGPCQRTQGPELPPPDPALQDLSLTLIASPPSSPSSSGTPALPGHMSSEESGTSISLLPALSLAAPDPGQRSSSQPSPAICSAPATLTPRSPHASRTPSSPLQSCTPSLSPRSHVPSPHQALVTRPQKPSLEFKEFVGLPCKNRPPFPRTGATRGAQEPCSVWEPPKRHRDGSAFQYEYEPPCTSLCARVQAVRLPPQLMAWALHFLMDAQPGSEPTPM"
2,4 RAP1 per TIN2,"RAP1, subunit of recombinant shelterin (natural protein, UniProt Q9NYB0 1-399, looked up, RAP1 (TRF2-associated shelterin subunit), gene NM_018975.3, codon-optimised) MAEAMDLGKDPNGPTHSSTLFVRDDGSSMSFYVRPSPAKRRLSTLILHGGGTVCRVQEPGAVLLAQPGEALAEASGDFISTQYILDCVERNERLELEAYRLGPASAADTGSEAKPGALAEGAAEPEPQRHAGRIAFTDADDVAILTYVKENARSPSSVTGNALWKAMEKSSLTQHSWQSLKDRYLKHLRGQEHKYLLGDAPVSPSSQKLKRKAEEDPEAADSGEPQNKRTPDLPEEEYVKEEIQENEEAVKKMLVEATREFEEVVVDESPPDFEIHITMCDDDPPTPEEDSETQPDEEEEEEEEKVSQPEVGAAIKIIRQLMEKFNLDLSTVTQAFLKNSGELEATSAFLASGQRADGYPIWSRQDDIDLQKDDEDTREALVKKFGAQNVARRIEFRKK"
3,4 TRF2 per TIN2,"TRF2 (telomeric repeat-binding factor 2), subunit of recombinant shelterin (natural protein, UniProt Q15554-3 1-542, looked up, TRF2, gene NM_005652.4, codon-optimised) MAAGAGTAGPASGPGVVRDPAASQPRKRPGREGGEGARRSDTMAGGGGSSDGSGRAAGRRASRSSGRARRGRHEPGLGGPAERGAGEARLEEAVNRWVLKFYFHEALRAFRGSRYGDFRQIRDIMQALLVRPLGKEHTVSRLLRVMQCLSRIEEGENLDCSFDMEAELTPLESAINVLEMIKTEFTLTEAVVESSRKLVKEAAVIICIKNKEFEKASKILKKHMSKDPTTQKLRNDLLNIIREKNLAHPVIQNFSYETFQQKMLRFLESHLDDAEPYLLTMAKKALKSESAASSTGKEDKQPAPGPVEKPPREPARQLRNPPTTIGMMTLKAAFKTLSGAQDSEAAFAKLDQKDLVLPTQALPASPALKNKRPRKDENESSAPADGEGGSELQPKNKRMTISRLVLEEDSQSTEPSAGLNSSQEAASAPPSKPTVLNQPLPGEKNPKVPKGKWNSSNGVEEKETWVEEDELFQVQAAPDEDSTTNITKKQKWTVEESEWVKAGVQKYGEGNWAAISKNYPFVNRTAVMIKDRWRTMKRLGMN"
4,1 POT1 per TIN2,"POT1, subunit of recombinant shelterin (natural protein, UniProt Q9NUX5-1 1-634, looked up, POT1 (shelterin subunit), gene NM_015450, codon-optimised) MSLVPATNYIYTPLNQLKGGTIVNVYGVVKFFKPPYLSKGTDYCSVVTIVDQTNVKLTCLLFSGNYEALPIIYKNGDIVRFHRLKIQVYKKETQGITSSGFASLTFEGTLGAPIIPRTSSKYFNFTTEDHKMVEALRVWASTHMSPSWTLLKLCDVQPMQYFDLTCQLLGKAEVDGASFLLKVWDGTRTPFPSWRVLIQDLVLEGDLSHIHRLQNLTIDILVYDNHVHVARSLKVGSFLRIYSLHTKLQSMNSENQTMLSLEFHLHGGTSYGRGIRVLPESNSDVDQLKKDLESANLTANQHSDVICQSEPDDSFPSSGSVSLYEVERCQQLSATILTDHQYLERTPLCAILKQKAPQQYRIRAKLRSYKPRRLFQSVKLHCPKCHLLQEVPHEGDLDIIFQDGATKTPDVKLQNTSLYDSKIWTTKNQKGRKVAVHFVKNNGILPLSNECLLLIEGGTLSEICKLSNKFNSVIPVRSGHEDLELLDLSAPFLIQGTIHHYGCKQCSSLRSIQNLNSLVDKTSWIPSSVAEALGIVPLQYVFVMTFTLDDGTGVLEAYLMDSDKFFQIPASEVLMDDDLQKSVDMIMDMFCPPGIKIDAYPWLECFIKSYNVTNGTDNQICYQIFDTTVAEDVI"
